Laboratory results as given in paper PMC6640692, “Canine CD117-Specific Antibodies with Diverse Binding Properties Isolated from a Phage Display Library Using Cell-Based Biopanning” (Antibodies, 2019).

Target: T1, recombinant canine CD117-ECD-human-Fc fused protein (canine, UniProt O97799 28-527)
T1 construct: canine CD117 (c-Kit) extracellular domain, amplified by PCR from a GeneArt-synthesized CD117 template (NP_001003181); The forward primer begins at the ATG start codon (MRGARG), so the secretion signal appears to be in the construct; Dimer through disulfide linkage in the hFc domain (non-reducing SDS-PAGE); also called CD117-hFc; ECD-CD117-hFc; source: CHO-S cells, transient transfection, purified …
T1 sequence (O97799 28-527): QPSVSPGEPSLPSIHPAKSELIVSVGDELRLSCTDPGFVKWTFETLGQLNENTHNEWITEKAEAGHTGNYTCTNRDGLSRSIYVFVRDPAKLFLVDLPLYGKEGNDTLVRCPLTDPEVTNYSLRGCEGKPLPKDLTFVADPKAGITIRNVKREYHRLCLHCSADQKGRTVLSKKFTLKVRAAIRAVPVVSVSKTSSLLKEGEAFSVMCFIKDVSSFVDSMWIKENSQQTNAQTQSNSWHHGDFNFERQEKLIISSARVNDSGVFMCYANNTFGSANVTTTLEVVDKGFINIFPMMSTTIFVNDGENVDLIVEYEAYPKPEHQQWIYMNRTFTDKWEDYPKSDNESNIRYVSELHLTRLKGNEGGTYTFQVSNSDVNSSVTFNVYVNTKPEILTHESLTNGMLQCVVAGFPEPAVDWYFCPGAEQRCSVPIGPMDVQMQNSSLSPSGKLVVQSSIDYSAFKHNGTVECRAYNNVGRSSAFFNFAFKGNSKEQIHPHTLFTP
Assay: ELISA; competitive ELISA: plate coated with 1 ug/mL canine CD117-hFc; 50 ng/mL canine SCF-His pre-mixed with serially diluted mAbs (from 40 ug/mL) in 2% MPBS, RT 1 h; bound SCF detected with anti-His HRP
Conditions: both partners purified

- binding result: binds
B1: recombinant canine stem cell factor (SCF)-His (ligand, UniProt Q06220 26-191, looked up)
chain: KGICGKRVTDDVKDVTKLVANLPKDYKIALKYVPGMDVLPSHCWISVMVEQLSVSLTDLLDKFSNISEGLSNYSIIDKLVKIVDDLVECTEGYSFENVKKAPKSPELRLFTPEEFFRIFNRSIDAFKDLETVASKSSECVVSSTLSPDKDSRVSVTKPFMLPPVAA
notes: signal peptide in the construct; canine SCF, secretion signal and the soluble part of the extracellular domain, NP_001012753.1 residues 1 to 191; also called canine SCF; SCF-His-tag; source: CHO-S cells, transient transfection, purified from supernatant (HisTrap excel IMAC)
